# Measurements reported in patent US11814447B2, “Peptide ligands for binding to EphA2” (BICYCLERD LIMITED, priority 2018, dated 2023).
# Read-outs that look alike come from different tables or passages of the source. Starred links: 1 amine or outer side, 2 acyl side, 3 side chain; linkers in the order of their positions; H or OH if unused. Positions of bridges follow the written chain, without caps; N, C: chain ends. Non-standard residues stand in square brackets, D forms with d. Primed or numbered codes have the meaning given here. No end group written: not given here. TBMB′ = 1,3,5-tris(bromomethyl)benzene, 1,3,5-tris(methylene)benzene core, three thioethers to Cys; TATA = O=C(CC[*:1])N1CN(C(=O)CC[*:2])CN(C(=O)CC[*:3])C1; 1Nal = N[C@@H](Cc1cccc2ccccc12)C(=O)O; TBMB = c1c(C[*:1])cc(C[*:3])cc1C[*:2]; hArg = N=C(N)NCCCC[C@H](N)C(=O)O; Tle = CC(C)(C)[C@H](N)C(=O)O; AF488 = AlexaFluor488; Aib = CC(C)(N)C(=O)O; βAla = NCCC(=O)O; Sar = CNCC(=O)O
# B1: Bicycle Compound Number 73 (TATA scaffold), ACPLVNPLCLHPGWTCLHG (peptide)
# peptide: ACPLVNPLCLHPGWTCLHG
# modifications: linker 2-9-16 via TATA
# B2: Bicycle Compound Number 64 (TBMB scaffold) (peptide)
# peptide: ACTTGSIWCALQFEPCA
# modifications: linker 2-9-16 via TBMB (inferred)
# notes: also called Compound 64
# B3: Bicycle Compound Number 90 (TATA scaffold), (β-Ala)-Sar10-…(HArg)GQ (peptide)
# peptide: [βAla][Sar][Sar][Sar][Sar][Sar][Sar][Sar][Sar][Sar][Sar]ACPLVNPLCLHPGWSC[hArg]GQ
# modifications: linker 13-20-27 via TATA
# B4: Bicycle Compound 158 (peptide)
# peptide: Ac-[Sar][Sar]A[dD]VTCPWGPFWCPVNRPGC
# modifications: linker 7-14-21 via TBMB′
# B5: Bicycle Compound 225 (peptide)
# peptide: Ac-[Sar][Sar]H[dD]VPCPWGPFWCPVNRPGC
# modifications: linker 7-14-21 via TBMB
# B6: Bicycle Compound Number 45 (TBMB scaffold) (peptide)
# peptide: ACPWGPAWCPVNRPGCAGAAA
# modifications: linker 2-9-16 via TBMB (inferred)
# notes: also called Compound 45
# B7: Bicycle Compound Number 89 (TATA scaffold), (β-Ala)-Sar10-ACPLVNPLCLHPGWSCRGQ (peptide)
# peptide: XXXXXXXXXXXACPLVNPLCLHPGWSCRGQ
# modifications: N-terminal (β-Ala)-Sar10; 3 Cys thioether-linked to TATA scaffold
# B8: Bicycle Compound 112 (peptide)
# peptide: [Sar][Sar]ACPWGPFWCPVNRP[dA]C
# modifications: linker 4-11-18 via TBMB
# B9: Bicycle Compound Number 2 (TBMB scaffold) (peptide)
# peptide: AF488-G[Sar][Sar][Sar][Sar][Sar][Sar][Sar][Sar][Sar][Sar]ACMNDWLCSLGWTC
# modifications: linker 13-19-25 via TBMB
# B10: Bicycle Compound Number 31 (TATA scaffold), ACSPTPACAVQNLCA (peptide)
# peptide: ACSPTPACAVQNLCA
# modifications: linker 2-8-14 via TATA
# B11: Bicycle Compound Number 65 (TATA scaffold), ARDCPLVNPLCLHPGWTCA (peptide)
# peptide: ARDCPLVNPLCLHPGWTCA
# modifications: linker 4-11-18 via TATA
# B12: Bicycle Compound 262 (peptide)
# peptide: Ac-[Sar][Sar]H[dD]VPCP[1Nal]G[Aib]F[1Nal]CP[Tle]NR[Aib]GC
# modifications: linker 7-14-21 via TBMB
# B13: Bicycle Compound Number 76 (TATA scaffold), (β-Ala)-Sar10-ACPLVNPLCLHPGWTCL(D-His)G (peptide)
# peptide: XXXXXXXXXXXACPLVNPLCLHPGWTCLHG
# modifications: X1 = β-Ala; X at 2-11 = Sar; H29 = D-His; 3 Cys thioether-linked to TATA scaffold
# How the values were obtained:
# [1] = molecular target: T1, Human EphA2 (Homo sapiens, UniProt P29317); experiment: Fluorescence polarisation competition binding assay
# T1 construct: EphA2 (Ecto); polyHis (C)
# Method: 1. Fluorescence Polarisation Measurements
# (b) Competition Binding Assay
# Peptides without a fluorescent tag were tested in competition with a peptide with a fluorescent tag and a known Kd (Table 2). Peptides were diluted to an appropriate concentration in assay buffer as described in the direct binding assay with a maximum of 5% DMSO, then serially diluted 1 in 2. […] Measurements were conducted as for the direct binding assay, however the gain was determined prior to the first measurement. Data analysis was in Systat Sigmaplot version 12.0 where the mP values were fit to a user defined cubic equation to generate a Ki value: f=y min+(y max−y min)/Lig*((Lig*((2*((Klig+Kcomp+Lig+Comp−Prot*c)^2−3*(Kcomp*(Lig−Prot*c)+Klig*(Comp−Prot*c)+Klig*Kcomp))^0.5*COS(ARCCOS((−2*(Klig+Kcomp+Lig+Comp−Prot*c)^3+9*(Klig+Kcomp+Lig+Comp−Prot*c)*(Kcomp*(Lig−Prot*c)+Klig*(Comp−Prot*c)+Klig*Kcomp)−27*(−1*Klig*Kcomp*Prot*c))/(2*(4(Klig+Kcomp+Lig+Comp−Prot*c)^2−3*(Kcomp*(Lig−Prot*c)+Klig*(Comp−Prot*c)+Klig*Kcomp))^3)^0.5)))/3))−(Klig+Kcomp+Lig+Comp−Prot*c)))/((3*Klig)+42*((Klig+Kcomp+Lig+Comp−Prot*c)^2−3*(Kcomp*(Lig−Prot*c)+Klig*(Comp−Prot*c)+Klig*Kcomp))^0.5*COS(ARCCOS((−2*(Klig+Kcomp+Lig+Comp−Prot*c)^3+9*(Klig+Kcomp+Lig+Comp−Prot*c)*(Kcomp*(Lig−Prot*c)+Klig*(Comp−Prot*c)+Klig*Kcomp)−27*(−1*Klig*Kcomp*Prot*c))/(2*(4(Klig+Kcomp+Lig+Comp−Prot*c)^2−3*(Kcomp*(Lig−Prot*c)+Klig*(Comp−Prot*c)+Klig*Kcomp))^3)^0.5)))/3))−(Klig+Kcomp+Lig+Comp−Prot*c)))).
# “Lig”, “KLig” and “Prot” were all defined values relating to: fluorescent peptide concentration, the Kd of the fluorescent peptide and EphA2 concentration respectively.
# [2] = molecular target: T2, Mouse EphA2 (Ecto) (Mouse, UniProt Q03145 26-538); experiment: FP competition; tracer Reference Compound C
# T2 construct: extracellular domain; C-terminal polyHis; not shown: Fc fusion or C-terminal polyHis
# Method: (§1) Peptides without a fluorescent tag were tested in competition with a peptide with a fluorescent tag and a known Kd (Table 2). Peptides were diluted to an appropriate concentration in assay buffer as described in the direct binding assay with a maximum of 5% DMSO, then serially diluted 1 in 2. […] Measurements were conducted as for the direct binding assay, however the gain was determined prior to the first measurement. Data analysis was in Systat Sigmaplot version 12.0 where the mP values were fit to a user defined cubic equation to generate a Ki value: […]
# T2 sequence (Q03145 26-538): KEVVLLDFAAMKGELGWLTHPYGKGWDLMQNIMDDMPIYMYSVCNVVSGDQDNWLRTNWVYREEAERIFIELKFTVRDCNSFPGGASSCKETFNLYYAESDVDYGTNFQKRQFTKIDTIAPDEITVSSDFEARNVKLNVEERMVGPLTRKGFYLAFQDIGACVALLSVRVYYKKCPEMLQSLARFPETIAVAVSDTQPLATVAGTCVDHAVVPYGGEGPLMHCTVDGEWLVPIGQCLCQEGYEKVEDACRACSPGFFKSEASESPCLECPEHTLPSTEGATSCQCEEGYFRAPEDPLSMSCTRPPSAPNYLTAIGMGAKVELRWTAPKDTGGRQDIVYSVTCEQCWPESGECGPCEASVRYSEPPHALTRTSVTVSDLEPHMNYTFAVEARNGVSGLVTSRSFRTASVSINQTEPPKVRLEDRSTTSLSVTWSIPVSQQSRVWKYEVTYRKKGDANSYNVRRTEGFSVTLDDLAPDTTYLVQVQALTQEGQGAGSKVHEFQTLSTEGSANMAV
# [3] = molecular target: T3, Human EphA2 (Ecto), C-terminal polyHis (Human, UniProt P29317 24-537); experiment: fluorescence polarisation competition; competitor fluorescent Compound 12
# T3 construct: extracellular domain; also called EPH receptor A2; ephrin type-A receptor 2
# Method: as §1
# [4] = molecular target: T3, Human EphA2 (Ecto), C-terminal polyHis; experiment: fluorescence polarisation competition; competitor fluorescent Compound 66
# Outline: (§2)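 Unlabelled peptides competed against a fluorescently tagged peptide of known Kd. Peptides were diluted in direct-binding assay buffer (≤5% DMSO) and serially diluted 1 in 2. Read as in the direct binding assay, with gain set before the first read; mP values fit to a cubic equation to give Ki.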
# [5] = molecular target: Human EphA2 (Ecto) (Human) (UniProt P29317); experiment: FP competition; tracer Reference Compound C
# [6] = molecular target: Mouse EphA2 (Ecto) (Mouse) (UniProt Q03145); experiment: FP competition; tracer Reference Compound C
# [7] = molecular target: T4, Human EphA2 (Ecto) (Human, UniProt P29317 24-537); experiment: FP competition, tracer Compound 18
# T4 construct: extracellular domain
# Outline: as §2
# T4 sequence (P29317 24-537): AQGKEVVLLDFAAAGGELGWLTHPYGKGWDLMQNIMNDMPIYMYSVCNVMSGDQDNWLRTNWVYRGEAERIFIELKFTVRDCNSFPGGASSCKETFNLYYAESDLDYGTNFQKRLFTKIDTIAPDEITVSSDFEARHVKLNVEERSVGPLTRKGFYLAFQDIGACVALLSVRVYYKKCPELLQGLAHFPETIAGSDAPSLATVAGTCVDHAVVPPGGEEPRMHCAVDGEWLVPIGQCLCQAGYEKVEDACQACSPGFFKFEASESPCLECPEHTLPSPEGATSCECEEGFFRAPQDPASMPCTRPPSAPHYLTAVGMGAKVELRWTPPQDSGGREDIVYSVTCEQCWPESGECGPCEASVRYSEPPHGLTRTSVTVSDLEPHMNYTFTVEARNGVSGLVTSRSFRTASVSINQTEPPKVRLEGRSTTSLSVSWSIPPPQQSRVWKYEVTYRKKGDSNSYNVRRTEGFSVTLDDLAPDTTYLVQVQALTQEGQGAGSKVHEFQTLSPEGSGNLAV
# [8] = molecular target: T5, Mouse EphA2 (Ecto) (Mouse, UniProt Q03145 26-538); experiment: FP competition, tracer Compound 18
# T5 construct: extracellular domain
# Outline: as §2
# T5 sequence (Q03145 26-538): as the sequence (Q03145 26-538) above
# [9] = molecular target: T6, Human EphA2 (Ecto) (Human, UniProt P29317 24-537); experiment: FP competition; tracer Reference Compound C
# T6 construct: extracellular domain; in-house)
# Method: as §1
# T6 sequence (P29317 24-537): as the sequence (P29317 24-537) above
# [10] = molecular target: T4, Human EphA2 (Ecto); experiment: FP competition, tracer Compound 18; remark: listed apart in the source
# Method: as §1
# [11] = molecular target: T4, Human EphA2 (Ecto); experiment: FP competition, tracer Compound 66
# [12] = molecular target: T3, Human EphA2 (Ecto), C-terminal polyHis; experiment: fluorescence polarisation, direct binding
# Method: Biological Data 1. […] The gain used for analysis was determined for each tracer at the end of the 60 minutes where there was no protein in the well. Data was analysed using Systat Sigmaplot version 12.0. mP values were fit to a user defined quadratic equation to generate a Kd value: f=y min+(y max−y min)/Lig*((x+Lig+Kd)/2−sqrt((((x+Lig+Kd)/2)^2)−(Lig*x))). "Lig" was a defined value of the concentration of tracer used.
# [13] = molecular target: T6, Human EphA2 (Ecto); experiment: FP competition; tracer Reference Compound B
# Method: as §1
# [14] = molecular target: Human EphA2 (Ecto) (Human) (UniProt P29317); experiment: FP competition, tracer Compound 18
# [15] = molecular target: Mouse EphA2 (Ecto) (Mouse) (UniProt Q03145); experiment: FP competition, tracer Compound 18
# [16] = read-out: Ki, nM ± 95% CI Human EphA2 Fluorescent peptide Compound 18, Table 9, Ala scan peptides
# [17] = read-out: Ki, nM ± 95% CI, Human EphA2, competition binding assay, fluorescent peptide Compound 18, TBMB scaffold reference peptides
# T1 sequence (P29317 24-537 limits assumed): as the sequence (P29317 24-537) above
# T3 sequence (P29317 24-537): as above
# Human EphA2 (Ecto) (Human), sequence (P29317 24-537): as above
# Mouse EphA2 (Ecto) (Mouse), sequence (Q03145 26-538): as the sequence (Q03145 26-538) above
molecule,measurement,setting,value
ADVHCPWGPFWCPV[dA]RPGCA (cysteine pairing not given here) [Compound 155],Ki,[1]; [16],2 nM
same,Ki,[1]; [17],2 nM
ADVHCPWGPFWC[dA]VNRPGCA (cysteine pairing not given here) [Compound 154],Ki,[1]; [16],101 nM
same,Ki,[1]; [17],101 nM
B1,Ki,[2],7.27 nM
B2,Ki,[3],410 nM
same,Ki,[4],63.4 nM
B3,Ki,[5],5.41 nM
same,Ki,[6],47 nM
B4,Ki,[7],2.05 nM
same,Ki,[8],2.2 nM
B5,Ki,[7],1 nM
same,Ki,[8],2.08 nM
B6,Ki,[3],99.2 nM
same,Ki,[4],117 nM
B7,Ki,[9],2.86 nM
same,Ki,[2],29.6 nM
B8,Ki,[10],89 nM
same,Ki,[11],110 nM
B9,Kd,[12],326 nM
B10,Ki,[13],177 nM
same,Ki,[9],223 nM
B11,Ki,[9],6.05 nM
same,Ki,[2],39.1 nM
B12,Ki,[14],0.71 nM
same,Ki,[15],0.72 nM
B13,Ki,[9],10 nM
same,Ki,[2],75.2 nM
